Among the data in the RNAGym collection of RNA variant scans (doi:10.7554/elife.80360) are self-cleavage values, retold here.

B1: Hairpin Ribozyme (parent)
chain: GUCCUCUUUCACGUGCGCGUGAAAGAGAGAAGUGAACCAGAGAAACACACGUUGUGGUAUAUUACCUGGUA

The variants in this series derive from B1. The series is described as follows: self-cleavage, relative activity (ratio to wild type); higher = more cleavage; co-transcriptional.
Turning to GUCCUCUUUCGCCUGCGCGUGAAAGAGAGAAGUGAACCAGAGAAACACACGUUGUGGUAUAUUACCUGGUA [A11G G13C], the self-cleavage came to 0.567.
In the case of GUCCUCUUUCGCUUGCGCGUGAAAGAGAGAAGUGAACCAGAGAAACACACGUUGUGGUAUAUUACCUGGUA [A11G G13U], the self-cleavage worked out at 0.662.
To GUCCUCUUUCGCGUGCGCGUGAAAGAGAGAAGUGAACCAGAGAAACACACGUUGUGGUAUAUUGCCUGGUA [A11G A64G] belongs 0.507; to GUCCUCUUUCGCGUGCGCGUGAAAGAGAGAAGUGAACCAGAGAAACACACGUUGUGGUAUAUUCCCUGGUA [A11G A64C], 0.114; to GUCCUCUUUCGCGUGCGCGUGAAAGAGAGAAGUGAACCAGAGAAACACACGUUGUGGUAUAUUUCCUGGUA [A11G A64U], 0.111.
For GUCCUCUUUCGCGUGCGCGUGAAAGAGAGAAGUGAACCAGAGAAGCACACGUUGUGGUAUAUUACCUGGUA [A11G A45G] the value was 0.271.
For GUCCUCUUUCGCGUGCGCGUGAAAGAGAGAAGUGAACCAGAGAACCACACGUUGUGGUAUAUUACCUGGUA [A11G A45C] the value was 0.124; for GUCCUCUUUCGCGUGCGCGUGAAAGAGAGAAGUGAACCAGAGUAACACACGUUGUGGUAUAUUACCUGGUA [A11G A43U], 0.199; for GUCCUCUUUCGCGUGCGCGUGAAAGAGAGAAGUGAACCAGAGGAACACACGUUGUGGUAUAUUACCUGGUA [A11G A43G], 0.128.
Consider GUCCUCUUUCGCGUGCGCGUGAAAGAGAGAAGUGAACCAGAGCAACACACGUUGUGGUAUAUUACCUGGUA [A11G A43C], for which the self-cleavage is 0.0944.
For GUCCUCUUUCGCGUGCGCGUGAAAGAGAGAAGUGAACCUGAGAAACACACGUUGUGGUAUAUUACCUGGUA [A11G A39U] the value was 0.495; for GUCCUCUUUCGCGUGCGCGUGAAAGAGAGAAGUUAACCAGAGAAACACACGUUGUGGUAUAUUACCUGGUA [A11G G34U], 1.17.
For GUCCUCUUUCGCGUGCGCGUGAAAGAGAGAAGUGAACCAGGGAAACACACGUUGUGGUAUAUUACCUGGUA [A11G A41G] the value was 1.01; for GUCCUCUUUCGCGUGCGCGUGAAAGAGAGAAGUGAACCAGAGAAACACACGUUGUGGUAUAUUAGCUGGUA [A11G C65G], 0.31.
For GUCCUCUUUCGCGUGCGCGUGAAAGAGAGAAGUGAACCAGAGAAACACACGUUGUGGUAUAUUACGUGGUA [A11G C66G] the value was 0.173; for GUCCUCUUUCGCGUGCGCGUGAAAAAGAGAAGUGAACCAGAGAAACACACGUUGUGGUAUAUUACCUGGUA [A11G G25A], 0.43.
Turning to GUCCUCUUUCGCGUGCGCGUGAAAGAGAGAAGUGAACCAGAGAAAAACACGUUGUGGUAUAUUACCUGGUA [A11G C46A], the self-cleavage is 0.0804.
To GUCCUCUUUCGCGUGCGCGUGAAAGAGAGAAGUGAACCAGAGAAAGACACGUUGUGGUAUAUUACCUGGUA [A11G C46G] belongs 0.0993.
To GUCCUCUUUCGCGUGCGCGUCAAAGAGAGAAGUGAACCAGAGAAACACACGUUGUGGUAUAUUACCUGGUA [A11G G21C] belongs 0.618.
To GUCCUCUUUCGCGUGCGCCUGAAAGAGAGAAGUGAACCAGAGAAACACACGUUGUGGUAUAUUACCUGGUA [A11G G19C] belongs 0.784; to GUCCUCUUUCGCGUGCGCGUGAAAGAGACAAGUGAACCAGAGAAACACACGUUGUGGUAUAUUACCUGGUA [A11G G29C], 0.177.
With GUCCUCUUUCGCGUGCGCGUGAAAGAGAGAAGUGAACCAGAGAAACACACGUUGUGGUGUAUUACCUGGUA [A11G A59G], the self-cleavage was 0.199.
For GUCCUCUUUCGCGUGCGCGUGAAAGAGAGAAGUGAACCAGAGAAACACCCGUUGUGGUAUAUUACCUGGUA [A11G A49C], the self-cleavage was determined as 0.124.
To GUCCUCUUUCGCGUGCGCGUGAAAGAAAGAAGUGAACCAGAGAAACACACGUUGUGGUAUAUUACCUGGUA [A11G G27A] belongs 0.353.
For GUCCUCUUUCGCGUGCGCGUGAAAGAUAGAAGUGAACCAGAGAAACACACGUUGUGGUAUAUUACCUGGUA [A11G G27U] the value was 0.248; for GUCCUCUUUCGCGUCCGCGUGAAAGAGAGAAGUGAACCAGAGAAACACACGUUGUGGUAUAUUACCUGGUA [A11G G15C], 0.859; for GUCCUCUUUCGCGUGCGCGUGAAAGAGAGAAGUGAACCAGAGAAACUCACGUUGUGGUAUAUUACCUGGUA [A11G A47U], 0.131.
To GUCCUCUUUCGCGUGCGCGUGAAAGAGAGAAGUGAACCAGAGAAACGCACGUUGUGGUAUAUUACCUGGUA [A11G A47G] belongs 0.0539.
As for GUCCUCUUUCGCGUGCGGGUGAAAGAGAGAAGUGAACCAGAGAAACACACGUUGUGGUAUAUUACCUGGUA [A11G C18G], the self-cleavage is 0.816.
For GUCCUCUUUCGCGUGCGCGUGAAAGAGAGAAGUGACCCAGAGAAACACACGUUGUGGUAUAUUACCUGGUA [A11G A36C] the value was 0.508.
To GUCCUCUUUCGCGUGCGCGUGAAAGAGAGAAGUGAAUCAGAGAAACACACGUUGUGGUAUAUUACCUGGUA [A11G C37U] belongs 0.357.
For GUCCUCUUUCGCGUGCGCGUGAAAGAGAGAAGUGAACAAGAGAAACACACGUUGUGGUAUAUUACCUGGUA [A11G C38A] the value was 0.213; for GUCCUCUUUCGCGUGCGCGUGAAAGAGAGAAGUGAACGAGAGAAACACACGUUGUGGUAUAUUACCUGGUA [A11G C38G], 0.188; for GUCCUCUUUCGCGUGCGCGUGAAAGAGAGAAGUGAACUAGAGAAACACACGUUGUGGUAUAUUACCUGGUA [A11G C38U], 0.432.
Turning to GUCCUCUUUCGCGUGAGCGUGAAAGAGAGAAGUGAACCAGAGAAACACACGUUGUGGUAUAUUACCUGGUA [A11G C16A], the self-cleavage was 0.825.
On to GUCCUCUUUCGCGUGUGCGUGAAAGAGAGAAGUGAACCAGAGAAACACACGUUGUGGUAUAUUACCUGGUA [A11G C16U], for which the self-cleavage came to 0.902.
Consider GUCCUCUUUCGCGUGCGCGUGAAAGAGAGAAGUGAACCAGAGAAACACACGUUGUGGUAUCUUACCUGGUA [A11G A61C], for which the self-cleavage came out at 0.14.
On to GUCCUCUUUCGCGUGCACGUGAAAGAGAGAAGUGAACCAGAGAAACACACGUUGUGGUAUAUUACCUGGUA [A11G G17A], for which the self-cleavage amounted to 1.01.
